The results in this text go back to the nanobody polyreactivity screen of Harvey et al. (2022).

The nature of this data set: yeast display, Sf9 membrane polyspecificity reagent, FACS + sequencing; frameworks hold sequencing errors. A digest of the protocol: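 Galactose-induced (36–48 hours) yeast carrying a synthetic nanobody display library were exposed to 10% biotinylated, detergent-solubilized Sf9 membrane reagent at 4 °C for 1 hour. FACS followed streptavidin microbead enrichment, using low and high (top ~1%) gates for expression (anti-HA) and reagent binding (streptavidin). Colony PCR, MiSeq 2 × 250 sequencing and CDR-length filtering followed. Labels for polyreactivity reflect the gate of origin.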
Take “QVQLVESGGGLVQAGGSLRLSCAASGFIFSGYAMGWYRQAPGKERELVATISGSGGSTYYADSVKGRFTISRDNAKNTVYLQMNSLKPEDTAVYYCAARQRGGYGYWGQGTQVTVSS”: the “polyreactivity (PSR sort gate)” value is recorded as “high polyreactivity”.
Take “QVQLVESGGGLVQAGGSLRLSCAASGFIFSGYAMGWYRQAPGKERELVATISGSGGSTYYADSVKGRFTISRDNAKNTVYLQMNSLKPEDTAVYYCAKRSIVGYRYSGYDYWGQGTQVTVSS”: the “polyreactivity (PSR sort gate)” value is “high polyreactivity”.
Next, “QVQLVESGGGLVQAGGSLRLSCAASGFIFSGYAMGWYRQAPGKEWELVAAISRRGGSTYYADSVKGRFTISRDNAKNTVYLQMNSLKPEDTAVYYCARTTRGSYGKFYYWGQGTQVTVSS”: “high polyreactivity”; “QVQLVESGGGLVQAGGSLRLSCAASGFIFSHYTMGWYRQAPGKERELVAGISWSGGNTYYADSVKGRFTISRDNAKNTVYLQMISLKPEDTAVYYCNADWIGVPLAYDYWGQGTQVTVSS”: “low polyreactivity”; “QVQLVESGGGLVQAGGSLRLSCAASGFIFSINAMGWYRQAPGKERELVADIDTGGSTNYADSVKGRFTISRDNAKNTVYLQMNSLKPEDTAVYYCAAQWYQYPSYISYFTSYDYWGQGTQVTVSS”: “low polyreactivity”.
In the case of “QVQLVESGGGLVQAGGSLRLSCAASGFIFSIYTMGWYRQAPGKERELVAAISWSGGSTYYADSVKGRFTISRDNAKNTVYLQMNSLKPEDTAVYYCNRVQFSPVYRFREYDYWGQGSQVTVSS” it was “high polyreactivity”; in that of “QVQLVESGGGLVQAGGSLRLSCAASGFIFSKNVMGWYRQAPGKERELVARITRSGGTTYYADSVKGRFTISRDNAKNTVYLQMNSLKPEDTAVYYCAARRYGSTSISWYDYWGQGTQVTVSS”, “high polyreactivity”.
Regarding “QVQLVESGGGLVQAGGSLRLSCAASGFIFSKYARGCYRQAPGKEGELVAAITFSGGSTYYADSVKGRFTISRDNAKNTVYLQMHSLKPEDTAVYYCNAEGSYPDVSPVLGYDYWGQGTQVTVSS”, the “polyreactivity (PSR sort gate)” value is listed as “low polyreactivity”.
In the case of “QVQLVESGGGLVQAGGSLRLSCAASGFIFSKYTMGWYRQAPGKETELVAAISSGGRTYYADSVKGRFTISRDNAKNTVYLQMNSLKPEDTAVYYCAVRGYIASQQAAGGGRNYYYWGQGTQVNVSS” it was “high polyreactivity”; in that of “QVQLVESGGGLVQAGGSLRLSCAASGFIFSKYVMGWSRQAPGKERELVAAITRSGSSTYYADSVKGRFTISRDNAKNTVYLQMNSLKPEDTAVYYCAADGGYYDDDYWGQGTQVTVSS”, “high polyreactivity”.
Next, “QVQLVESGGGLVQAGGSLRLSCAASGFIFSLYAMGWYRQAPGKERELVAGISESGGSTYYADSVKGRFTISRDNAKNTVYLQMNSLKPEDTAVYYCNADDTVYFIKAGDYWGQGTQVTVSS”: “high polyreactivity”; “QVQLVESGGGLVQAGGSLRLSCAASGFIFSNNAMGWYRQAPGKERELVAAISGRGGSTYYADSVKGRFTISRDNAKNTVYLQMNSLKPEDTAVYYCNALYTYSYSRFDYWGQGTQVTVSS”: “low polyreactivity”.
With “QVQLVESGGGLVQAGGSLRLSCAASGFIFSNNAMGWYRQAPGKERELVAVINGGGSTYYADSVKGRFTISRDNAKNTVYLQMNSLKPEDTAVYYCARKSWPKERRVDPGYDYWGQGTQVTVSS”, the “polyreactivity (PSR sort gate)” value is “low polyreactivity”.
“QVQLVESGGGLVQAGGSLRLSCAASGFIFSPYAMGGYRHEPGKEREFVAAITSRVGSTYYADSVKGRFTISRDNAKNTVYLQMNSLKPEDTAVYYCAATTDGLVGRPRYDYWGQGTQVTVSS”: the “polyreactivity (PSR sort gate)” value was “low polyreactivity”.
Next, “QVQLVESGGGLVQAGGSLRLSCAASGFIFSQYARGWYRQAPGKERELVAAISYSGGSTYYADSVKGRFTISRDNAKNTVYLQMNSLKPEDTAVYYCAVSGRSYYRSDYWGQGTQVTVSS”: “high polyreactivity”; “QVQLVESGGGLVQAGGSLRLSCAASGFIFSRNAMGWYRQAPGKERELVASITRRGGSKYYADSVKGRFTISRDYAKNTVYLQMNSLKPEDTAVYYCAADGYVRPPEMDYWGQGTQVTVSS”: “high polyreactivity”; “QVQLVESGGGLVQAGGSLRLSCAASGFIFSRNAMGWYRQAPGKVRELGAAISRVGSTYYADSVKGRFTISRDNAKNTVYLQMYSLKREDTAVYYCARAWGNGGKSIFDYWGQGTQVTVSS”: “high polyreactivity”.
On to “QVQLVESGGGLVQAGGSLRLSCAASGFIFSRYAMGWSRQAPGKERELVAAIRFSGSITYYADSVKGRFTISRDNAKNTVYLQMNSLKPEDTAVYYCAAYRRYYGWYEYWGQGTQVTVSS”, for which the “polyreactivity (PSR sort gate)” value is on record as “high polyreactivity”.
Consider “QVQLVESGGGLVQAGGSLRLSCAASGFIFSRYAMGWYRQAPGKERELVAAISGRGTSTYYADSVKGRFTISRDNAKNTVYLQMNSLKPEDTAVYYCNTYSQPKWGTSDYDYWGQGTQVTVSS”, for which the “polyreactivity (PSR sort gate)” value was “high polyreactivity”.
On to “QVQLVESGGGLVQAGGSLRLSCAASGFIFSRYVMGWYRQAPGKEMELVAVISYRGGSTYYADSVKGRFTISRDNAKNTVYLQMNSLKPEDTAVYYCNADTIPDGEDRYDYWCQGTQVTVSS”, for which the “polyreactivity (PSR sort gate)” value is recorded as “low polyreactivity”.
“QVQLVESGGGLVQAGGSLRLSCAASGFIFSSNAMGWYRPAPGKERELVARITSSDGSTYYADSVKGRFTISRDNAKNTVYLQMNSLKPEDTAVYYCAKGRDATHYEYYLYSMDYWGQGTQVTVSS”: the “polyreactivity (PSR sort gate)” value is “low polyreactivity”.
In the case of “QVQLVESGGGLVQAGGSLRLSCAASGFIFSSYAMGWYRQAPGKERELVAAISRGGSTYYADSVKGRFTISRDNAKNTVYLQMNSLKPEDTAVYYCNARRYRHDGYWGQGTQVTVSS” it was “high polyreactivity”; in that of “QVQLVESGGGLVQAGGSLRLSCAASGFIFSSYAMGWYRQAPGKERELVAAISRSGGRTNYADSVKGRFTISRDNAKNTVYLQMNSLKPEDTAVYYCNADRKYWSLWGPAYDYWGHGTQVTVSS”, “high polyreactivity”; in that of “QVQLVESGGGLVQAGGSLRLSCAASGFIFSTNAKGWYSQAPGKERELVATIRSGVSTYYADSVKGRFTISRDNAKNTVYLQMNSLKPEDTAVYYCNVDDTSRTTSGGRFGQVESDYWGQGTQVTVSS”, “low polyreactivity”.
With “QVQLVESGGGLVQAGGSLRLSCAASGFIFSTYAMGWYRQAPGKERELVAAITTSGSSTYYADSVKGRFTISRDNAKNTVYLQMNSLKPEDTAVYYCNAKYGYSAATDRGNYWGQGTQVTVSS”, the “polyreactivity (PSR sort gate)” value is “high polyreactivity”.
In the case of “QVQLVESGGGLVQAGGSLRLSCAASGFIFSVNTMGWYRQAPGKERELVAAISGSGGSTYYADSVKGRFTISRDNAKITVYFQMNSLKPDDTAVYYCAARYTVTYDYWGQCTQVTVSS” it was “high polyreactivity”.
For the sequence “QVQLVESGGGLVQAGGSLRLSCAASGFIFSVNTMGWYRQAPGKERELVAAISGSGGSTYYADSVKGRFTISRDNAKNTVYLQMNSLKPEDTAVYYCAAGVAWRFYSWGQGTQVTVSS”, the “polyreactivity (PSR sort gate)” value is given as “high polyreactivity”.
Take “QVQLVESGGGLVQAGGSLRLSCAASGFIFSVYTMGWYRQAPGKERELVASITGSGGDTYYADSVKGRFTISRDNAKNTVYLQMNSLKPEDTAVYYCNVDAGFHDSYHAWNFRYDYWGQGTQVTVSS”: the “polyreactivity (PSR sort gate)” value is “low polyreactivity”.
In the case of “QVQLVESGGGLVQAGGSLRLSCAASGFIFSWNDLGWYRQATGKERELVAAITSGTGSTYYADSVKGRFTISRDNAKNTVYLQMNSLKPEDTAVYYCAAGTNYGKLRIRFDYWGQGTQVTVSS” it was “low polyreactivity”; in that of “QVQLVESGGGLVQAGGSLRLSCAASGFIFSWYVMGWYRQAPGKERELVAAISQSGGDTYYADSVKGRFTFSRDNAKNTVYLQMNILKPEDTAVYYCAVGRVGRFYYWGQGTQVTVSS”, “high polyreactivity”.
